# Biological target: the molecule itself
# Test: cryo-EM structure; SecB/pOA1MTAu complex from gel filtration, vitrified on holey carbon grids, FEI Tecnai F20 at 200 kV; single particle analysis (EMAN), 19562 particles; about 20 Å; SecB crystal structure docked manually
protein,measurement,value
"SecB (natural protein, E. coli, SecB, molecular chaperone of the Sec pathway, E. coli; also called molecular chaperon SecB; E. coli SecB; source: prepared as described previously [26]) MSEQNNTEMTFQIQRIYTKDISFEAPNAPHVFQKDWQPEVKLDLDTASSQLADDVYEVVLRVTVTASLGEETAFLCEVQQGGIFSIAGIEGTQMAHCLGAYCPNILFPYARECITSMVSRGTFPQLNLAPVNFDALFMNYLQQQAGEGTEEHQ",binding result,binds

# From article PMC3464278, “Structural Characterization of the Complex of SecB and Metallothionein-Labeled proOmpA by Cryo-Electron Microscopy” (PLoS ONE, 2012)
